# According to patent publication US20090123940A1, “MOLECULES INVOLVED IN SYNAPTOGENESIS AND USES THEREFOR” (THE JOHNS HOPKINS UNIVERSITY, priority 2007, published 2009):
# Marks after values point to notes of the source that are not given here.
# B1: Narp: Neuronal activity regulated pentraxin (SEQ ID NO:2), expressed by transfection, also as C-terminal myc-tagged version (protein, listed as Rattus norvegicus)
# chain: MLALLTAGVALAVAAGQAQDNPIPGSRFVCTALPPEAARAGCPLPAMPMQGGALSPEEELRAAVLHWRETVVQQKETLGAQREAIRELTSKLARCEGLAGGKARGTGATGKDTMGDLPRDPGHVVEQLSRSLQTLKDRLESLELQLHTNASNAGLPSDFREVLQRRLGELERQLLRKVAELEDEKSLLHNETSAHRQKTENTLNALLQRVTELERGNSAFKSPDAFKVSLPLRTNYLYGKIKKTLPELYAFTICLWLRSSASPGIGTPFSYAVPGQANEIVLIEWGNNPIELLINDKVAQLPLFVSDGKWHHICITWTTRDGMWEAFQDGEKLGTGENLAPWHPIKPGGVLILGQEQDTVGGRFDATQAFVGELSQFNIWDRVLRAQEIINIANCSTNMPGNIIPWVDNNVDVFGGASKWPVETCEERLLDL
# modifications: optional C-terminal myc tag
# Assays:
# [1] = tested on: cultured spinal neurons; experiment: Narp overexpression in transfected cultured spinal neurons; assay type: cell-based
# Description: In order to characterize the synaptic targeting of Narp in neurons, a C-terminal myc-tagged version of Narp (designated myc-Narp) was transfected into cultured spinal neurons (Dong et al., Nature 386:279-84, 1997). After 72 hours of expression, live staining with an anti-myc (mouse) antibody, followed by a FITC labeled anti-mouse secondary, was used to reveal the surface distribution of the transfected Narp. Subsequent staining of the same cells, after fixation and permeabilization, with an AMCA labeled anti-myc (rabbit) antibody was used to identify transfected neurons and their axons and dendrites, while GluR1 and GAD staining were used to identify excitatory and inhibitory synapses, respectively.
# Given the presence of Narp on both pre and postsynaptic processes and the biochemical propensity of pentraxins to form head to head multimeric aggregates (Emsley et al., Nature 367, 338-45, 1994; Gewurz et al., Curr. Opin. Immunol. 7:54-64, 1995; Bottazzi et al., J. Biol. Chem. 272:32817-23, 1997), the possibility that Narp may function to facilitate the formation of excitatory synapses was explored. Thus, the number of synaptic GluR1 clusters (i.e., GluR1 clusters associated with synaptophysin staining) in transfected neurons over expressing myc-Narp was compared with the number of synaptic GluR1 clusters in untransfected neurons or in neurons transfected with a control plasmid containing the C-terminus of the NMDA receptor subunit NR1A (NR1CT).
# [2] = tested on: GluR1 expressing 293 cells; experiment: Co-culture of separately transfected 293 cells, intercellular clustering; assay type: cell-based
# Excerpt: To evaluate whether Narp could mediate intercellular aggregation of GluR1, similar to that expected at a synapse, myc-tagged Narp and GluR1 were expressed separately in 293 cells and subsequently co-cultured together. Under these conditions, surface Narp clusters on one cell could induce large surface GluR1 aggregates on another. In a total of 109 contacts between a GluR1 expressing transfected cell and a Narp expressing cell, there was a mean of 1.2+/−0.75 large overlapping GluR1/myc-Narp clusters at these sites of contact. […] Moreover, the number of GluR1 clusters at sites of contact with non-Narp expressing 293 cells was extremely low [0.07 R1 clusters per contact with a GluR2 expressing cell (n=76); 0.03 R1 clusters per contact with a Pick1/GluR2 expressing cell (n=58)]. The interaction between GluR1 and Narp required contact between the heterologous cells, as there was no evidence that Narp could diffuse from one cell and induce GluR1 clusters on another.
# [3] = tested on: GluR1 on cultured spinal neurons; experiment: Co-culture of myc-Narp expressing 293 cells with spinal neurons; assay type: cell-based
# Description: The neurons and transfected HEK-293 cells were cocultured for 48 hours and then fixed and stained for myc-Narp, GluR1 and synapsin. When contacts between myc-Narp expressing 293 cells and GluR1 expressing spinal neurons were examined for overlapping myc-Narp/GluR1 clusters, 64% (82/128) of the myc-Narp clusters in contact with the neuron overlapped with neuronal GluR1 clusters (mean of 2.6+/−1.5 overlapping myc-Narp/GluR1 clusters per 293-neuron contact).
# [4] = biological target: T1, HA GluR1 surface diffusion (Homo sapiens, UniProt P42261); experiment: Single Quantum Dot Tracking of HA-tagged receptors on hippocampal neurons; assay type: cell-based, mouse
# T1 construct: expressed in transfected cells; host or cells: dissociated mouse hippocampal neurons (P1-3 pups)
# T1 sequence (P42261 19-906): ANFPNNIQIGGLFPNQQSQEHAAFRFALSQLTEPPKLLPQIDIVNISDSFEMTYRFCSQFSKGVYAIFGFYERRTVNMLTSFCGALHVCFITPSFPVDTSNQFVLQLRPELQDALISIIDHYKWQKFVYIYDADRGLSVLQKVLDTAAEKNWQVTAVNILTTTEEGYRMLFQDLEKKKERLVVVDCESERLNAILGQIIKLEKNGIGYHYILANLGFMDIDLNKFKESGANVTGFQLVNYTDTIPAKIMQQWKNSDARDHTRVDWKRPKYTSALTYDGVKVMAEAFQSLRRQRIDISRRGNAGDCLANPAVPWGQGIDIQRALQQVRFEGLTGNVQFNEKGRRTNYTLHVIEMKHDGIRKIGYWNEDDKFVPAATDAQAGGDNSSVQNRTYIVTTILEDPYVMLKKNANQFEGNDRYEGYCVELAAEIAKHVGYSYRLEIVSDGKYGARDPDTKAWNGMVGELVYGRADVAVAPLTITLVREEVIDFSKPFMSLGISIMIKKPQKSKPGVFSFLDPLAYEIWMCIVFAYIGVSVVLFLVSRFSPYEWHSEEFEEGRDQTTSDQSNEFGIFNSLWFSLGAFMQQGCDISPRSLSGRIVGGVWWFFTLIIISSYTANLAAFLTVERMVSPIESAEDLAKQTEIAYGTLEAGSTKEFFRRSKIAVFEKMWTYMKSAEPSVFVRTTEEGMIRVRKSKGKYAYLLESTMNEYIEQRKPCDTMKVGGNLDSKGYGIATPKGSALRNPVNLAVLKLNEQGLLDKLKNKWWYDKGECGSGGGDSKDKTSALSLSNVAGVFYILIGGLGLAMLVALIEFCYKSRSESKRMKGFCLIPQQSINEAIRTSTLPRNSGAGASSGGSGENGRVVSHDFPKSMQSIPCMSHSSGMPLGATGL
# Description: (§1) Single Quantum Dot (QD) Tracking. Hippocampal neurons were prepared from postnatal days 1-3 mouse pups and cultured in Banker Style conditions to 6 D. I. V., 8 D. I. V., or 11 D. I. V. Cultured hippocampal neurons were transfected as above. 0.5 μL of QD 655 mouse IgG (QuantumDot Corporation) was incubated with 0.8 μg of HA antibody (Santa Cruz) in a 20 μL volume of PBS for 1 hour at room temperature. Neurons were incubated in a 1:500 dilution of this QD solution for 15 minutes at 37° C., 5% CO2. After brief washes with culture media, the neurons were mounted on a live imaging chamber with culture media/10 mM Hepes. Transfected neurons were identified based on GFP fluorescence. 100 millisecond exposure images were collected from neurons at a frequency of 2.67 Hz for 60 seconds with a coolsnap HQ (Photometrix). The graphical and numerical representation of the trajectory of each QD was extracted from each stack of images using the Motion Analysis Package of Metamorph (Universal Imaging Corporation). The numerical representation of the trajectory was used to calculate a diffusion coefficient using MSD software. Analysis was performed blinded.
# (§2) Narp reduces surface diffusion of GluR1 but not GluR1ΔNAR1. GluR1ΔNAR1 was used to examine the hypothesis that Narp and NP1 function to limit the diffusion of receptors, and thereby recruit GluR1 to synapses. As part of a validation of GluR1ΔNAR1 for cell biological studies it was confirmed that it retained agonist-dependent channel activity. […] The mobility of HA GluR1 relative to HA GluR1ΔNAR1 on the surface of neuronal dendrites were compared using 5 nm fluorescent Quantum Dots (QDs) and Single Quantum Dot Tracking (SQDT). Dissociated hippocampal cultures (DIV 6) were transfected with HA GluR1-IRES2-GFP or HA-GluR1ΔNAR1-IRES2-GFP. […] QD-HA-GluR1 and QD-HA-GluR1ΔNAR1 were visualized by live, time-lapse fluorescence imaging. The trajectories of QD-coupled receptors were determined by the position of the QD in each frame, and the receptor diffusion coefficients were calculated from QD trajectories over multiple trials. […]
# [5] = biological target: T2, HA GluR1 surface diffusion (Homo sapiens, UniProt P42261, A320G/C323G/D322G/DEL281-317/N319G); experiment: as above; assay type: cell-based, mouse; details: 7 D. I. V., Narp transgene
# T2 construct: expressed in transfected cells; host or cells: dissociated mouse hippocampal neurons (P1-3 pups)
# T2 sequence (P42261 with tags, fused parts or gaps DEL281-317/N319G/A320G/D322G/C323G): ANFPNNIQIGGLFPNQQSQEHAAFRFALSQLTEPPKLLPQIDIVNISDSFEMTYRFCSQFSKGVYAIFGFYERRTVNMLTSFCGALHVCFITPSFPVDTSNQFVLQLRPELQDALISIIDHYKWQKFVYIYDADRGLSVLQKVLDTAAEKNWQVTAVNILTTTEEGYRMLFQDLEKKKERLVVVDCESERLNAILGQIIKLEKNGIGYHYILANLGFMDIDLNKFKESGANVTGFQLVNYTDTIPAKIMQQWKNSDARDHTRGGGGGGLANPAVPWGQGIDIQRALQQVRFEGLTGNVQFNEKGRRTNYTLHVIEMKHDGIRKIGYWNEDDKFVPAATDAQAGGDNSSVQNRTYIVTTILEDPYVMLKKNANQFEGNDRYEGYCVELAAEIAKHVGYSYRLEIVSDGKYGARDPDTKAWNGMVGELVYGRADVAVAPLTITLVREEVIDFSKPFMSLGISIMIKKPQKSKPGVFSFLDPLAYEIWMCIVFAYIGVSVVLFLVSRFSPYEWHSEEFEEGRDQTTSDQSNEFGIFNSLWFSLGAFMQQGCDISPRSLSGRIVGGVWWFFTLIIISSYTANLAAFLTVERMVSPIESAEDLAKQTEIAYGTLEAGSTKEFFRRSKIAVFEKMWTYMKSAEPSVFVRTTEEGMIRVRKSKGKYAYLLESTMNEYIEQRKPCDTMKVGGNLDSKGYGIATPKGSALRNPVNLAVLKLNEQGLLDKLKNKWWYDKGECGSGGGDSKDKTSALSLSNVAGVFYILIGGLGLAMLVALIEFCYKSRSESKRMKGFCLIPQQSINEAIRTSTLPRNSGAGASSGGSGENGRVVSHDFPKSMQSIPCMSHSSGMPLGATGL
# Description: as §1, §2
# [6] = transfected neurons, +/- S.D., 5 experiments
molecule,measurement,setting,value
B1,increase in number of synaptic GluR1 clusters compared to either control,"[1]; five transfection experiments, p<0.01",1.9 fold
same,Synaptic GluR1 Clusters,[1]; [6],13.0 +/− 3.8 **
same,Synaptophysin Clusters,[1]; [6],16.0 +/− 4.6 *
same,Neuritic Length,"[1]; transfected neurons, permeablized myc staining at 100X, 3 experiments",225 µm
same,GAD Clusters,"[1]; transfected neurons, separate series of 3 experiments",5.9 +/− 3.9
same,large overlapping GluR1/myc-Narp clusters at sites of contact,[2]; 109 contacts between a GluR1 expressing cell and a Narp expressing cell,1.2+/−0.75
same,coclusters of NR1 and NR2A,[2]; n=32 contacts,0
same,clusters of EAAC1 at sites of contact,[2]; n=121,0.04+/−0.05
same,intercellular myc-Narp*GluR1 co-clusters,"[2]; untagged Narp co-expressed with GluR1, co-cultured with cells expressing only myc-tagged Narp, n=124",2.6+/−1.4
same,myc-Narp clusters in contact with the neuron overlapping with neuronal GluR1 clusters,[3]; 48 hours coculture,64%
same,overlapping myc-Narp/GluR1 clusters per 293-neuron contact,[3]; 48 hours coculture,2.6+/−1.5
same,bioactivity of soluble Narp collected from the media (binding to transfected 293 cells),[3]; soluble secreted form,no bioactivity
same,slowing of HA GluR1 average diffusion rate versus absence of Narp transgene,[4]; 7 D. I. V.,58%
same,slowing of HA GluR1 diffusion in the presence of the Narp transgene,[4]; 9 D. I. V.,44%
same,HA-GluR1ΔNAR1 average diffusion rate,[5],not significantly altered
